This is an account of results in patent US20220195057A1 (LANOVA MEDICINES, published 2022).

By EC50 is commonly meant the concentration that produces a half-maximal response.

Test [1] deals with T1, human chemokine (C-C motif) receptor 8 (CCR8) protein (human, UniProt P51685 1-355). As to the kind of experiment: cell-based or functional assay.
Test [2] addresses T1, human chemokine (C-C motif) receptor 8 …. As to the kind of experiment: flow cytometry, CCR8-expressing HEK293 cells. An outline of the steps:
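Cell binding was measured by flow cytometry on HEK293 cells overexpressing human CCR8, alongside parental HEK293 cells. Antibodies were titrated from 200 nM in 4-fold dilutions over 12 points and incubated with the cells at 4° C for 60 minutes. Cells were washed twice with FACS buffer, stained with Alexa Fluor 647 goat anti-human IgG at 4° C for 60 minutes, washed twice and analysed. The read-out is binding EC50.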
On the technique in general: Flow cytometry measures light scatter and fluorescence of single cells or particles in a stream.

The target is the same in test [3]. The test is described as follows: flow cytometry, high-CCR8-expressing U2OS cells. The text has this:
The cells used were U2OS (U2OS/H_CCR8).

For test [4] the target is unchanged. The test is described as follows: flow cytometry, low-CCR8-expressing Jurkat cells. The source says:
The cells used were Jurkat engineering cells (Jurkat/H_CCR8).

For test [5] the target is unchanged. The test is described as follows: cell binding, CCR8-expressing U2OS cells, curve fit. Further details: LogEC50: unit not given here.
For test [6] the target is unchanged. As to the kind of experiment: cell binding, CCR8-expressing CHO-K1 cells, curve fit. Also on record: LogEC50: unit not given here.

B1: 137-H3L2 (LM-108) (antibody, V domains shown)
VH: EVQLVESGGGLVQPGGSLKLSCAASGFTFNTYAMNWVRQASGKGLEWVARIRSKANNYATYYADSVKDRFTISRDDSKNTLYLQMNNLKTEDTAVYYCVRDRSRGEDYAMDYWGQGTLVTVSS
VL: DIVMTQSPLSLPVTPGEPASISCRSSKSLLHSNANTYLYWFLQKPGQSPQLLIYRMSNLASGVPDRFSGSGSGTAFTLKISRVEAEDVGVYYCMQHLEYPFTFGQGTKLEIK
notes: Humanized 137D1H10; Detected with anti-human IgG
Consider B1, for which the “ADCC EC50 with primary human PBMCs (cytotoxicity detection)” value in test [1] stood at 0.002 nM. In addition, a half-maximal effect in test [2] (EC50) was put at 1.03 nM. In test [3], this molecule registered a concentration for a half-maximal effect (EC50) of 0.25 nM. The same molecule registered an EC50 in test [4] of 0.212 nM. Besides, in test [5], the Bottom amounted to 2060, the LogEC50 was -0.69, the Span turned out to be 30200 and the Top turned out to be 32300. In test [6], this molecule displayed a Bottom of 4260, a LogEC50 of -0.684, a Span of 28900 and a Top of 33200.
